Reference: paper PMC3806662

Target: BiP (human (endogenous in HEK293T)) (UniProt P11021)
Test: co-IP

Chain of UniProt P11021 (P11021 19-654): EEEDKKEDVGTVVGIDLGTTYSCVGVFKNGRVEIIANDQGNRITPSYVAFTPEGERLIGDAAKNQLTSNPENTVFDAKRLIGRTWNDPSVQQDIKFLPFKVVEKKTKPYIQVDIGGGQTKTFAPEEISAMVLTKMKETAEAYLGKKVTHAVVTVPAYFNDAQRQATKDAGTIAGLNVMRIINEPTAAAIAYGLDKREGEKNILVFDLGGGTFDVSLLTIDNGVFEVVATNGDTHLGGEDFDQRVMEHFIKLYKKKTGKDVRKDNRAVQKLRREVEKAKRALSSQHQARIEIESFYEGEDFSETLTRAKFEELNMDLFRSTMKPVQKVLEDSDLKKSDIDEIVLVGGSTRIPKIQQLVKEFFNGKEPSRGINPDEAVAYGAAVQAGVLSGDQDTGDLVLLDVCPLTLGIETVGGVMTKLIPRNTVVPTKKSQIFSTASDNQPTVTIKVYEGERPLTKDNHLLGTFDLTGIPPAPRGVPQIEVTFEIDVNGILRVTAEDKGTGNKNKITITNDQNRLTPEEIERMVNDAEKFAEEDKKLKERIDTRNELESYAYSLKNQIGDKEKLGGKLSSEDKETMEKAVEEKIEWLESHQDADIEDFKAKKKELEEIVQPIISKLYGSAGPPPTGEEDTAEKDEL

- fold co-precipitated relative to NHK: 2 fold
Substance: QQQ mutant of NHK (from UniProt P01009 25-418) (natural protein)
